{"source": "patent US20250092426", "about": "“CAS ENDONUCLEASES AND RELATED METHODS” (Flagship Pioneering Innovations VII, LLC, published 2025)", "biological_target": "T1, CasEnd-20 (synthetic construct)", "T1 chain": "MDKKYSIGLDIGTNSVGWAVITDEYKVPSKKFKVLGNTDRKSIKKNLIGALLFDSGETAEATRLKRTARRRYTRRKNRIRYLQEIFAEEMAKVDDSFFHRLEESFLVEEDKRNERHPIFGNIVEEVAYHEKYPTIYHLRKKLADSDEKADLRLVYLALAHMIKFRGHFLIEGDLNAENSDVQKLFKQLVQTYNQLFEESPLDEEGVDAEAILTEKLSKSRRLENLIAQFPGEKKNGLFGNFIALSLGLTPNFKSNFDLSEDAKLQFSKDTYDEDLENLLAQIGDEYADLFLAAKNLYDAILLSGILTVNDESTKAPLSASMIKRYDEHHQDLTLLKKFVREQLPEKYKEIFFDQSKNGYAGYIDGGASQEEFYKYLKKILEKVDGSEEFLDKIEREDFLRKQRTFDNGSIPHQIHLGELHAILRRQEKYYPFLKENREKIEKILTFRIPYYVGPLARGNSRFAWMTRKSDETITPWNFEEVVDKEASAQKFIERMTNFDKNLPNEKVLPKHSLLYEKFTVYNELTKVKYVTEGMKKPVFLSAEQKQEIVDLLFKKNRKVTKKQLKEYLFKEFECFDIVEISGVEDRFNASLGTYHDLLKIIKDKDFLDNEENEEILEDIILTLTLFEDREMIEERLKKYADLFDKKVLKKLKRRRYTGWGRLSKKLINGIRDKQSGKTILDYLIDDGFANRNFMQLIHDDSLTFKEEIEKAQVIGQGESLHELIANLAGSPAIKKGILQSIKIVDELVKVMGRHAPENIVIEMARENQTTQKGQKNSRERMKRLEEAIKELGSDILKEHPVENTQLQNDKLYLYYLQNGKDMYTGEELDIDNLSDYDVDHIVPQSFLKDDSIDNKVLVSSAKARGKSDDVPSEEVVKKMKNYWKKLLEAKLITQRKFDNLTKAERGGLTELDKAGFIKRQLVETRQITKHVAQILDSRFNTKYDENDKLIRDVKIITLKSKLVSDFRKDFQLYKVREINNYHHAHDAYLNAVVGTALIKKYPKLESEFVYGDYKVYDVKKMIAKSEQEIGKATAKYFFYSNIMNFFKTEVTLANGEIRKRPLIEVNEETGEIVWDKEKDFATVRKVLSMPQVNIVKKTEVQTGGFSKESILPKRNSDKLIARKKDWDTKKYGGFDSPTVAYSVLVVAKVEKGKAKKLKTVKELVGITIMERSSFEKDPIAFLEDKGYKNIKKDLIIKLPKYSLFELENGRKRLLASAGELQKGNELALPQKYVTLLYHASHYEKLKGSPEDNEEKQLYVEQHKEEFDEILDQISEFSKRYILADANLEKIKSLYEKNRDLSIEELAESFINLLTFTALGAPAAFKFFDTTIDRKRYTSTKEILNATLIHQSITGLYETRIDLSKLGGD", "assay": "cell_activity; +++; K562, second nick guide SEQ 380; PAM not stated", "procedure": "The ability of the candidate endonucleases, including endonucleases 1-38 (CasEnds 1-38) (set forth in Table 1 and SEQ ID NOS: 1-38, respectively), to mediate target nucleic acid editing in cells was assessed by amplicon sequencing of the endogenous hemoglobin subunit beta (eHBB) gene, wherein the percent of amplicons displaying the intended edit is measured. The editing system is comprised of a template RNA (designed to introduce the Single Nucleotide Polymorphism), a second nick guide RNA, and a fusion protein consisting of retroviral reverse transcriptase and the individual subject Cas endonuclease.\nBriefly, 250 ng of plasmid DNA encoding the subject fusion protein (containing one of the subject CasEnds), 250 ng each of plasmid DNA encoding the template RNA and the second nick guide RNA were added to 15 μL Lonza SF buffer containing 250,000 K562 cells. Nucleofection was mediated utilizing program FF-120-DA on a Lonza nucleofector. The day of nucleofection was marked as day 0. At day 3, the cells were harvested and subjected to lysis buffer treatment overnight. Genomic DNA was extracted and used for targeted amplicon sequencing to evaluate the performance of each Cas endonucleases based on their percent edit efficiencies."}
{"binder": "HBB template RNA ; HBB protospacer (ssRNA ; dsDNA) RNA: CAUGGUGCACCUGACUCCUGGUUUUAGAGCUAGAAAUAGCAAGUUAAAAUAAGGCUAGUCCGUUAUCAACUUGAAAAAGUGGCACCGAGUCGGUGCACGGCAGACUUCUCUGCCGGAGUCAGGUGC DNA 1: CATGGTGCACCTGACTCCTG DNA 2: CAGGAGTCAGGTGCACCATG", "values": [{"measurement": "activity", "result": "≥ 100 % of reference"}]}
